For 15 sequences, protein production results are on record in a protein production outcome set (Wang et al. 2014).
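Note: failed if final PepcDB status was selected cloned or expressed and not failed if soluble or beyond.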

The nature of the data set: label from the status in PepcDB records.
For the sequence “MQSDKVLNLPAGYFGIVLGTIGMGFAWRYASQVWQVSHWLGDGLVILAMIIWGLLTSAFIARLIRFPHSVLAEVRHPVLSSFVSLFPATTMLVAIGFVPWFRPLAVCLFSFGVVVQLAYAAWQTAGLWRGSHPEEATTPGLYLPTVANNFISAMACGALGYTDAGLVFLGAGVFSWLSLEPVILQRLRSSGELPTALRTSLGIQLAPALVACSAWLSVNGGEGDTLAKMLFGYGLLQLLFMLRLMPWYLSQPFNASFWSFSFGVSALATTGLHLGSGSDNGFFHTLAVPLFIFTNFIIAILLIRTFALLMQGKLLVRTERAVLMKAEDKE”, the protein production entry is listed as “not failed”.
Consider “TVACPGRGRARPVCWKRSEMATCAVEVFGLLEDEENSRIVRVRVIAGIGLAKKDILGASDPYVRVTLYDPMNGVLTSVQTKTIKKSLNPKWNEEILFRVHPQQHRLLFEVFDENRLTRDDFLGQVDVPLYPLPTENPRLERPYTFKDFVLHPRSHKSRVKGYLRLKMTYLPKTSGSEDDNAEQAEELEPGWVVLDQPDAACH”, for which the protein production result is “failed”.
Take “MPAPLRFSSDKPLLLLIDMQQAVDDPSWGPRNHPQAEQACAGLLQAWRARGLPLIHIRHDSVEPNSTYRPGQPGHAFKPEVEPRPGETVIAKQTNSAFIGTGLEALLRANGWLELVVAGVSTSNSVEATVRMAGNLGFAVCLAEDGCFTFDKTDWHGRRRSADEVHAMSLANLDGEYCRVCGSADILAALGNIAGAA”: the protein production entry is recorded as “not failed”.
As to “MPKRKNTSIKDYKLKSGKKRYMFQIYLGTNSNGKPIITRRRGFKSYAEAEAVFNKMSQIKPDNFVKQKQIKVAELRELWFENYKTQVKESTANKNKQVFDNHVIPAFGNQYIDKITVAELQKWADRKAKQIVKYRDAINEFNALFEYGIRLNYVSENPLKRIIIPKKTSRPRRDTEHNVYTQDELNQFLEVAKDYGLVPYTYFKLLSATGLRKSEALALTWSDINLTAGTLSVNKTLAYGLNGKTIIQPPKSPKSKRILPISDGLKEVLIDYKRKQKIISKELFHTNKGTYLRISKPDQWLKSIYAKDHEEKAEYAKKYNLKEPQPDLRHITVHGFRHTFATLLIAETNVKPKTVQMLLGHENIQMTLDIYTHINKKNTEDAVNALKQLNI”, the protein production result is on record as “failed”.
For “MSRGLLEACIEFIRETPAGDALRIVAYEFTFKRILLELKAALERGVDVRIVYHATTANEKAIADAKLPENSKGVQILFKRTRPQTPHNKFIVRLKKGKTPVSVWTGSTNFTPSGFLGQTNVGHKVTDGDIAKIYLQLWEGLKADPDDFDATQLEHHHHHH”, the protein production entry was “not failed”.
Turning to “MLVTSLVVKPALSTTLKMCTFSTLSAFVLTACSGNAETTNVAEIQHDMGSATAAASPKATAPEGTVLKRSAIDALQTVGNSIGIKIGSHLELGSAADFEKGNTTKVSIDAECFDMTSSSKAFIVACSDGVHSVDPVSGKNSVIAQPTETAHYAVQVSTGEVLVAHRDSNKVEVFNDGEKLSEVATEYGSDQLISVPIEGQADAVVRINNKYTLIQDVNWKESKPGAILRVGKGVGRISAAKQGVVLASDAKKNQFAVYGAKDVIRLHQTSPTGPSPWGITWDNKHDLAWVATTGDNKVTGYDISSGTGSEKSSYNTIENVHNIAVLDDGTLVLASASGAGLQLVKSQTD”, the protein production entry was “failed”.
In the case of “KVKWTHEEDEQLRALVRQFGQQDWKFLASHFPNRTDQQCQYRWLRVL” it was “not failed”.
In the case of “MKESRNTLNSSELNTTTSWSKHDTHWVLSLFGTAVGAGILFLPINLGIGGFWPLVAMAFLAFPMTYLAHRGLARFVLSSKIKNADFTDVVEEHFGAKAGRSISLLYFLSIFPILLIYGVGITNTVDSFMVNQAGMEALPRELLSGVLVFALIAIMMAGEKVMLRAFAVMVYPLVAILAFLSFYLMPNWTMPVLDTPDMGAFASTMWLAVPVVIFSFSHAAAISSFANVQRRHYGDDADAKAELILRCTSIMLIAFVLLFVFSCVLALSPEQLAQAKAQNVSVLSYLANATDNPFIATLGPLVAFVAITSSFLGHFLGARESLNGLITKHSNLSETRVDRISVVVLFLSIWAAAIMNPSILGMMEALSGPVIAMILFIMPMLAVHKIESMKQYRGKLSTYFVLITGIVAVSALVFSLLS” it was “not failed”; in that of “MELVVGRVVKSHGVTGEVVVEIRTDDPADRFAPGTRLRAKGPFDGGAEGSAVSYVIESVRQHGGRLLVRLAGVADRDAADALRGSLFVIDADDLPPIDEPDTYYDHQLVGLMVQTATGEGVGVVTEVVHTAAGELLAVKRDSDEVLVPFVRAIVTSVSLDDGIVEIDPPHGLLNLE”, “failed”; in that of “MTDIVLADRYRLGDVIGTGGMSEVYEATDVLLGRKVAVKMLRADLARDVNFRERFRREAQNSGKLNHPAIVAVYDTGETPRAGLNTPYIVMELVNGRTLRDIVREDGPLTPSQAAHTLIPVCHALQVSHDAGIIHRDIKPANVMITNTGAVKIMDFGIARALDDATSAMTQTSAVIGTAQYLSPEQARGKLADARSDVYALGCVLYETLTGKPPFEGETPFAVAYQHVQEDPVKPSEYIADLSPTAAINVDAVVLTAMAKHPGDRYQTAQEMCADLERLGRNAVTDAARHYVTPTSFATQDPASTTVVPVTQVTELDHAEAGAGIGAGVVPAGAVAGSAAVAGSGGAHAAPRSSNRGLRILAAILAVLVLAVGAGFAIDYFGGGPFSQRSTVTIPKLQNSTQQDAVNQLEKLGLQVNVIEEPNPDIPRGKVIRTNPTDGSNVQRNSTVRLTISSGKEITEVPDLSGKNTADAVKILEAAGLLLDPTVREDSSDTVPKGEIIEVSPAAGSQVSRGSKVSITVSTGVETVRVPVITGMKWDQAEGNLTSLGFKPEVVRVDSVEPAGTVVAVPDEGAEVPKGSSVTVQISNGAMFTVPEITRQTIDDAVRILHDAGWKGNASRLIQAAKVPTVAVTDQNLIASQLPTPGTALRKDAPIEIRLYEFNLAALVPPAQH”, “failed”.
In the case of “MSLSLPLFYAPDIEQSDRLPDDEAGHILRVLRMQAGDRLRLTDGRGSFFDAVIETADRKSCYVSVCGQESWQKPWRDRITIAIAPTKQSERMEWMLEKLVEIGVDEVVFIESEHSERRRIKAERLERIAISAMKQSLKASFPVIRVNIPIQTVIADTPKAAVRLIAYVDEAVRAEITQGRGYPSDFYHVGQDVLILIGPEGDFSPSEVESALLAGFAPVSLGESRLRTETAGLVACQWIHTLQACCRIGEGHHHHHH” it was “not failed”; in that of “MPAGCESNPRLVGHPFMTTILAIAVFGAVGCVARYLLAGGVYALAGRAFPWGTLAVNVIGAFLIGLIMEAALRTTLMSQELRLGLTIGFLGGFTTFSTFSYETFKLLEDGEFFSASLNVLASVALCLVGTWAGIMAARQL”, “failed”; in that of “MEENKPVFSIITVCYCARDIIAKTAHSVLSQTYPNIEYIVVDGASPDNTAEVVRSLSSDIRLISEPDKGLYDAMNKGLRMALGDYVWFLNAGDLLPSDDLVEAIANGIKSSPMGLPDVLYGDTMLIDATGKEKGLRRLRPPFELQWRSFADGMLVCHQAFIAKRLIAPPYNMKYRFSADFDWCIRILQAARNIVNTEMILVHSLDDRGGITYKNHKASLKERFLIMKHYYGSRKSIMKHLSFFFRRKR”, “failed”.
For the sequence “NCRLFIGGIPKMKKREEILEEIAKVTEGVLDVIVYASAADKMKNRGFAFVEYESHRAAAMARRKLMPGRIQLWGHQIAVDWAEPEIDVDEDVMETV”, the protein production result is “not failed”.
In the case of “MKPLRTRFLRWRGAAAGGLLAGALLASPAWAAKQADWWVYVHNDKARDIGALLAAGADPNVRYDNGQPAIMRAVVDNAWEVFDVLAANRRTDLNAENPAGETPLMYLAVAGQTERAQALIARGAQVNRLGWTPLHYAASKGRLETARMLLGKQALVNAPSPDGTTPLMMAAYSGDRRMVQLLLDAGADITTRNLKGMSAADWAAFGKSEALARELKPMIARAEAERQARHGAVATSKLAPAAETPPTAQPAAASAAASQPGEGRSLSGVSGVRLNSYD” it was “failed”.
